Molecular target: inactivated SARS-CoV preparation (Frankfurt 1 strain), gamma-irradiated

Row | Binder | OD492 nm [OD492 nm]
1 | single-chain phage antibody SC03-015 (scFv) scFv: AMAEVQLVESGGGVVRPGGSLRLSCAASGFTFDDYGMSWVRQAPGKGLEWVSGINWNGGSTGYADSVKGRFTISRDNAKNSLYLQMNSLRAEDTAVYYCARGLSLRPWGQGTLVTVSRGGGGSGGGGSGGGGSSELTQDPAVSVALGQTVRITCQGDSLRSYYASWYQQKPGQAPVLVIYGKNNRPSGIPDRFSGSSSGNTASLTITGAQAEDEADYYCNSRDSSGNHVVFGGGTKLTVLGAAA | 0.796
2 | single-chain phage antibody SC03-006 (scFv) scFv: SMAEVQLVESGGGLVQPGGSLRLSCAASGFTFSGYPMHWVRQAPGKGLEWVAVISYDGSNKYYADSVKGRFTISRDNSKNTLYLQMNSLRAEDTAVYYCAKDGSPRTPSFDYWGQGTLVTVLEGTGGSGGTGSGTGTSELDIQMTQSPHSLSASVGDRVTITCRASQGISNYLAWYQQKPGKVPKLLIYAASTLQSGVPSRFSGSGSGTDFTLTISSLQPEDVGVYYCQQRFRTPVTFGQGTKLEIKRAAA | 1.06
3 | single-chain phage antibody SC03-012 (scFv) scFv: AMAQVQLVQSGAEVKKPGASVKVSCKASGYTFTSYGISWVRQAPGQGLEWMGWISAYNGNTNYAQKLQGRVTMTTDTSTSTAYMELSSLRSDDTAVYYCARMFRKSSFDSWGQGTLVTVSRGGGGSGGGGSGGGGSSELTQDPAVSVALGQTVRITCQGDSLRSYYASWYQQKPGQAPVLVIYGKNNRPSGIPDRFSGSSSGNTASLTITGAQAEDEADYYCNSRDSSGNHVVFGGGTKLTVLGAAA | 0.495

From patent US20060121580A1
